Assay results taken from patent US20210221863A1 (Innovent, published 2021).
Read-outs that look alike come from different tables or passages of the source.

What was measured:
IL-2Rβ IH-Biotin [1] = molecular target: T1, IL-2Rβ IH-Biotin (Homo sapiens (Human), UniProt P14784 27-240, biotin on the avi tag (enzymatic labeling with His-BirA)); test: BLI (Octet Red96): biotinylated receptor on SA sensor, 100 nM Fc fusion in solution, 1:1 model
T1 construct: also called IL-2Rβ IH (in house); CD122
T1 sequence: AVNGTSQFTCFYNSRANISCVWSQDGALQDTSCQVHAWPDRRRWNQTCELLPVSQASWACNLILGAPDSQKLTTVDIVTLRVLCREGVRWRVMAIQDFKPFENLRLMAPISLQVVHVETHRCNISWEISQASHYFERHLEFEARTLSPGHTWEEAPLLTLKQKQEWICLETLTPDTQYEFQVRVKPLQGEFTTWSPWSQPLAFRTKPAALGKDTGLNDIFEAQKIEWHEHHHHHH
Method: A BLI affinity assay was performed according to the prior art (Estep, P, et al., High throughput solution based measurement of antibody-antigen affinity and epitope binning. MAbs, 2013.5(2): p. 270-8). […] Kinetic analysis was performed on the assay results using a 1:1 binding model.

[2] = molecular target: T2, IL-2Rα (CD25) on primary human CD8^+ CD25^+ T cells (human, UniProt P01589 22-272); test: cell-based or functional assay
T2 sequence (looked up): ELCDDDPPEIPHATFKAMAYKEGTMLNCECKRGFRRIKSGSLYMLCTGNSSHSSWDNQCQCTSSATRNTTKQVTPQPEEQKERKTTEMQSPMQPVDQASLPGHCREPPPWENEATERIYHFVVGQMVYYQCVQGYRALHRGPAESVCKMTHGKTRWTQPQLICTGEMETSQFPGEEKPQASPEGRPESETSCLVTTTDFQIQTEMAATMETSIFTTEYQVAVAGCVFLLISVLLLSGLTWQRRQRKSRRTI

[3] = molecular target: T2, IL-2Rα (CD25) on primary human CD8^+ …; test: cell-based or functional assay; remark: listed apart in the source
IL-2Rα-Biotin [4] = molecular target: T3, IL-2Rα-Biotin (Homo sapiens (Human), UniProt P01589 22-217, biotin on the avi tag (enzymatic labeling with His-BirA)); test: BLI (Octet Red96): biotinylated receptor on SA sensor, 100 nM Fc fusion in solution
T3 construct: also called CD25; IL-2Rα receptor
T3 sequence: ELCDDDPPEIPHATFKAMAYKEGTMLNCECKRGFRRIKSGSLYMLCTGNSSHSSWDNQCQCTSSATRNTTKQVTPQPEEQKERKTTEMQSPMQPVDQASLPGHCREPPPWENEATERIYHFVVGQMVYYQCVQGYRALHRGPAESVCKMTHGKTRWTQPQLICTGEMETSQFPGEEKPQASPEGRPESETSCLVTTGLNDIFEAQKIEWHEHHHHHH

IL-2Rβ IH-Biotin [5] = molecular target: T1, IL-2Rβ IH-Biotin; test: flow cytometry: yeast-displayed IL-2 stained with IL-2Rβ IH-Biotin (30 nM-100 nM)
Method: (§1) 1. 1×10⁶ cells from each sample were centrifuged to discard the supernatant, and washed with FACS buffer once for later use; [0133] 2. the cells were added to 100 μL of FACS buffer containing 50 nM IL-2Rα-Biotin and Anti Flag antibody, and incubated at room temperature for 30 min; [0134] 3. the mixture was centrifuged at 3000 rpm, 4° C. for 3 min, and washed with pre-cooled FACS buffer twice; [0135] 4. 100 μL of FACS buffer containing SA-PE and goat anti-mouse conjugated with Alex Flour-647 was added, and the mixture was incubated on ice for 20 min away from light; [0136] 5. after being washed twice with pre-cooled FACS buffer, the cells were resuspended in 100 μL of buffer, and the binding level of IL-2^mutant to IL-2Rα was assayed by a flow cytometer (BD, ACCURI C6). […] 1. […] 2. the cells were added to 100 μL of FACS buffer containing IL-2Rβ IH-Biotin (30 nM-100 nM) and Anti Flag antibody, and incubated at room temperature for 30 min; [0139] 3. following steps 3-5 described above, the binding level of IL-2^mutant to IL-2Rβ was assayed.

IL-2Rα-Biotin [6] = molecular target: T3, IL-2Rα-Biotin; test: flow cytometry: yeast-displayed IL-2 stained with 50 nM IL-2Rα-Biotin
Method: as §1

B1: IL-2^3X-FC fusion protein (Fc fusion, not shown: small tags and cut ends; a dimerising Fc or GST)
chain: APTSSSTKKTQLQLEHLLLDLQMILNGINNYKNPKLTDMLTFEFYMPKKATELKHLQCLERELKPLEEVLNLAQSKNFHLRPRDLISNINVIVLELKGSETTFMCEYADETATIVEFLNRWITFSQSIISTLT
Q: Which Kd (IL-2Rβ IH-Biotin [1]) does the source give for B1 here?
A: 16 nM

Q: What about the “EC50 (read off the curve) of p-STAT5 activation” value [2] of the same binder?
A: ~6 nM

Q: What about the “EC50 (read off the curve) of p-STAT5 activation” value [3] of the same binder?
A: ~7 nM

Q: Does B1 bind (IL-2Rα-Biotin [4])?
A: no binding (tested: 100 nM)

B2: IL-2^H9 displayed on the surface of yeasts (ligand, not shown: small tags and cut ends)
chain: APTSSSTKKTQLQLEHLLLDLQMILNGINNYKNPKLTRMLTFKFYMPKKATELKHLQCLEEELKPLEEVLNLAQSKNFHFDPRDVVSNINVFVLELKGSETTFMCEYADETATIVEFLNRWITFSQSIISTLT
notes: Control on yeast cells
Q: Does B2 bind (IL-2Rβ IH-Biotin [5])?
A: binds

B3: IL-2^3x displayed on the surface of yeasts (ligand, not shown: small tags and cut ends)
chain: APTSSSTKKTQLQLEHLLLDLQMILNGINNYKNPKLTDMLTFEFYMPKKATELKHLQCLERELKPLEEVLNLAQSKNFHLRPRDLISNINVIVLELKGSETTFMCEYADETATIVEFLNRWITFSQSIISTLT
notes: Control on yeast cells
Q: Does B3 bind (IL-2Rα-Biotin [6])?
A: no binding (tested: 50 nM)
